# Measurements: article PMC3072105 (Nature Communications, 2011)
# T1: KvAP channel from Aeropyrum pernix, wild type (Aeropyrum pernix, UniProt Q9YDF8 14-295)
# T1 sequence (looked up): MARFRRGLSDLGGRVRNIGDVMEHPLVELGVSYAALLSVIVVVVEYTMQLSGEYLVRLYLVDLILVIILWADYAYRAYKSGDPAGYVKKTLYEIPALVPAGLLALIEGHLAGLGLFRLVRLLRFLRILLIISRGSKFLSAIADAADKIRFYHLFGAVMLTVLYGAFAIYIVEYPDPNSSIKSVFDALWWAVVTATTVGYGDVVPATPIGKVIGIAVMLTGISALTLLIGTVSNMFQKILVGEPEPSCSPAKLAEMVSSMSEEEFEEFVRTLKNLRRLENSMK
# Assays:
# [1] = target: full-length KvAP-T225C (Aeropyrum pernix); experiment: cross-linking
# [2] = target: T1, KvAP channel from Aeropyrum pernix, …; experiment: electrophysiology
stoichiometry N [1],Kd [2],Molecule
4,–,full-length KvAP-T225C (natural protein)
–,21.2 ± 3.5 µM,GNHAEIYSNHHMMSHVGGGR [synthetic φD peptide]
